Results: patent publication US6887705B1, “Tyrosine phosphorylated cleavage furrow-associated proteins (PSTPIPs)” (Genentech, Inc., priority 1997, dated 2005)

Tests used:
[1] = target: T1, interaction between PTP HSCF and PSTPIP (Mus musculus, UniProt P97814); assay: Peptide inhibition of in vitro binding of PSTPIP to GST-PTP HSCF fusion; set-up: species or system murine; details: GST-PST-rich+CTH PTP HSCF precipitating in vitro translated PSTPIP, varying amounts of peptide
T1 construct: made in house; host or cells: GST fusion: E. coli DH5-alpha; PSTPIP: in vitro transcription/translation in rabbit reticulocyte lysate (Promega TnT)
T1 sequence (P97814 1-415): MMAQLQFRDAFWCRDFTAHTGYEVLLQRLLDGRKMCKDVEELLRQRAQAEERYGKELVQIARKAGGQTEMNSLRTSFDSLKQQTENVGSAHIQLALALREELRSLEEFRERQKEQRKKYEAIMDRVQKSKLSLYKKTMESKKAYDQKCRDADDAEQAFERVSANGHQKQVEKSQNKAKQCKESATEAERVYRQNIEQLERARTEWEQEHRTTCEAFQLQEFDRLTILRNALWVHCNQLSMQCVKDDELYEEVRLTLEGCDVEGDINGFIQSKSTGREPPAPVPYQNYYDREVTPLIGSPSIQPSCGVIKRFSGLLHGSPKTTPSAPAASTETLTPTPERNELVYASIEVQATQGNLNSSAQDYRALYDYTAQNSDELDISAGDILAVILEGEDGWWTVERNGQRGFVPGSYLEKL
Experimental: The binding was carried out according to the method of Wong and Johnson (Wong et al., J. Biol. Chem. 271(35):20981-20984 (1996)). Briefly, 1 μg of plasmid with either the PSTPIP protein or PTP HSCF under the control of the Sp6 promoter was in vitro transcribed/translated using the Promega™ TnT Rabbit Reticulocyte™ system. Samples were diluted in 50 mM HEPES, pH 7.2, 1% triton X 100, 10% glycerol, 100 mM NaCl, 5 mM EDTA and 2 μg/ml each of leupeptin, pepstatin, aprotinin, and PMSF. […] This was reacted for 1 hour at 4° C. and then the resin washed 6 times in HEPES/Triton binding buffer before SDS gel electrophoresis. The peptides were synthesized on an automated Milligen 9050 Peptide Synthesizer using standard solid phase chemistry with FMOC protected amino acids on a p-alkoxybenzyl alcohol resin. Dried peptides were re-suspended in the HEPES/Triton Binding buffer at a concentration of 10 mg/ml. Peptide inhibition was performed by adding the peptide first to the in vitro translation product and then the GST-fusion followed by the GSH-Sepharose. […]
In vitro binding analyses between various PTP HSCF and PST PIP constructs were performed as previously described (Spencer et al, (1997), supra). […] Samples were than reacted with GST fusion proteins at various concentrations, and the bound proteins were centrifuged using glutathione-sepharose beads and analyzed on SDS polyacrylamide gels. […]

[2] = system: PSTPIP tyrosine phosphorylation; assay: Tyrosine phosphorylation of endogenous PSTPIP in Baf3 cells; format: cell-based, murine
Experimental: Baf3 cells were lysed in 1% Triton, 50 mM HEPES. 10% glycerol and 5 mM EDTA containing 1 μg/ml aprotinin, PMSF, leupeptin and pepstatin were 1 mM Sodium Vanadate and 10 mM Iodoacetic acid. Cells were treated with 0.1 mM Pervanadate for 4 hours before lysis. Immunoprecipitations were performed in the vanadate-containing lysis buffer using 1 μg/ml anti-PSTPIP polyclonal antibody and 400 μg of lysate protein at 4° C. overnight. Western blots were performed using 1 μg/ml affinity purified anti-PSTPIP or 1:5000 dilution of commercial 4G10 anti-phosphotyrosine monoclonal (Upstate Biotech). Signal was detected by HRPO-ECL reagents (Pierce). The C221-S mutant was as previously described (Cheng et al., (1996) supra). The PTP HSCF D197-A mutant was generated using PCR. Mutagenesis primer D197A.F ([…]) (SEQ ID NO:24), corresponding to nucleotide 591, and primer D197A.R ([…]) (SEQ ID NO:25) which corresponds to the stop codon, were used in PCR to generate a fragment that could be cut with Mscl and XbaI. pRK.HA.38 WT, a plasmid which encoded the wild type enzyme under the control of the cytomegalovirus promoter (Cheng et al., (1996) supra), was digested with Clal and Mscl and the resulting 600 bp fragment was ligated with the Mscl-Xbal PCR fragment into the Clal and Xbal sites of the pRK.tkneo. […]

Row | Compound | blocking of the PTP HSCF-PSTPIP interaction by peptide [1] | tyrosine phosphorylation of endogenous PSTPIP [2]
1 | GGVLRSISVPAPPTLPMADT [PXXP-CONTROL] | completely unable to block the interaction | 
2 | [O]=[V]([O-])([O-])[O-] [vanadate] |  | significantly enhanced
